Source: CN116744966A (WISTAR INST; WEINER DAVID; MUTHUMANI KARTHIK; PARZACCHI …, dated 2023)

B1: WCoVA9 (antibody, V domains shown)
VH: EVQLQQSGAELVKPGASVKLSCTASGFNIKDTYMHWVKQRPEQGLEWIGRIDPANGNTKYDPKFQAKATITANTSSNTAYLHLSSLTSEDTAVYYCAPYYDYVGAMDYWGQGTSVTVSS
VL: DIQMTQSPASQSASLGESVTITCLASQTIGTWLAWYQQKPGKSPQLLIYAATSLADGVPSRFSGSGSGTKFSFKISSLQAEDFVSYYCQQLYNTPLTFGGGTKLEIK
B2: WCoVA7 (antibody, V domains shown)
VH: EVKLLESGGGLVQPGGSLKLSCAASGFDFSRYWMSWVRQAPGKGLEWIGEINPDSSTINYTPSLKDKFIISRDNAKNTLYLQMSKVRSEDTALYYCARIYYGSPGAMDYWGQGTSVTVSS
VL: SIVMTQTPKFLLVSAGDRVTITCKASQSVSNDVAWYQQKPGQSPKLLIYYASNRYTGVPDRFTGSGYGTDFTFTISTVQAEDLAVYFCQQDYFSPYTFGGGTKLEIK

Experiments:
[1] = target: recombinant SARS-CoV-2-RBD (Sino Biological) (SARS-CoV-2, UniProt P0DTC2 319-541)
[2] = target: SARS-CoV-2 spike protein (wild type) on pseudovirus (SARS-CoV-2, UniProt P0DTC2 14-1273); assay: cell-based or functional assay

Binder | Kd [1] [nM] | IC50, pseudovirus neutralisation (CHO-ACE2 cells, luciferase) [2] [ng/mL]
B1 | < 1 | 4.9
B2 | – | 2.6
